Consider 5 molecules from publication PMC11708034.

The target in test [1] is CDTb heptamer (Clostridioides difficile) (UniProt O32739). The test can be described thus: cryo-EM structure.
For test [2], the target named is biotinylated CDTb oligomers (Clostridioides difficile) (UniProt O32739). The test can be described thus: BLI; biotinylated CDTb oligomers saturated on streptavidin biosensors (Octet Red 96e); CDTa 200 to 0.032 nM in solution; 20 mM HEPES pH 8.0, 100 mM NaCl, blocked with 0.01% Igepal CA-630 and 0.1% BSA; 5 min association, 10 min dissociation; kON from the slope of kobs against concentration, KD from the signal at equilibrium (sigmoidal dose-response fit).

For test [3] the target is unchanged. The test can be described thus: BLI; […]; 20 mM HEPES pH 8.0, 100 mM NaCl, […]; 5 min association, 10 min dissociation; […].

As usually defined, the stoichiometry N is a count of units in the complex or per binding partner. Regarding “CDTb heptamer (from UniProt O32739 45-876) (complex)”, the stoichiometry N in test [1] turned out to be 7.

B1: CDTa_(60-463) (domain or fragment)
chain: LKDKEKAKEWERKEAERIEQKLERSEKEALESYKKDSVEISKYSQTRNYFYDYQIEANSREKEYKELRNAISKNKIDKPMYVYYFESPEKFAFNKVIRTENQNEISLEKFNEFKETIQNKLFKQDGFKDISLYEPGKGDEKPTPLLMHLKLPRNTGMLPYTNTNNVSTLIEQGYSIKIDKIVRIVIDGKHYIKAEASVVSSLDFKDDVSKGDSWGKANYNDWSNKLTPNELADVNDYMRGGYTAINNYLISNGPVNNPNPELDSKITNIENALKREPIPTNLTVYRRSGPQEFGLTLTSPEYDFNKLENIDAFKSKWEGQALSYPNFISTSIGSVNMSAFAKRKIVLRITIPKGSPGAYLSAIPGYAGEYEVLLNHGSKFKINKIDSYKDGTITKLIVDATLIP
As a reminder, the Kd is the free concentration of one partner at which half of the binding sites on the other are occupied at equilibrium, for simple one-to-one binding. High values mean weaker binding, low ones tighter binding. By kon is commonly meant the rate constant with which the complex forms. Read a high kon as faster complex formation. For B1, in test [2], the Kd worked out at 9.5 nM and the kon was found to be 800000 M⁻¹ s⁻¹.

B2: CDTa_(40-463) (domain or fragment)
chain: YSEKVCNTTYKAPIERPEDFLKDKEKAKEWERKEAERIEQKLERSEKEALESYKKDSVEISKYSQTRNYFYDYQIEANSREKEYKELRNAISKNKIDKPMYVYYFESPEKFAFNKVIRTENQNEISLEKFNEFKETIQNKLFKQDGFKDISLYEPGKGDEKPTPLLMHLKLPRNTGMLPYTNTNNVSTLIEQGYSIKIDKIVRIVIDGKHYIKAEASVVSSLDFKDDVSKGDSWGKANYNDWSNKLTPNELADVNDYMRGGYTAINNYLISNGPVNNPNPELDSKITNIENALKREPIPTNLTVYRRSGPQEFGLTLTSPEYDFNKLENIDAFKSKWEGQALSYPNFISTSIGSVNMSAFAKRKIVLRITIPKGSPGAYLSAIPGYAGEYEVLLNHGSKFKINKIDSYKDGTITKLIVDATLIP
In test [2], B2 registered a Kd of 9 nM and a kon of 1.2e+06 M⁻¹ s⁻¹.

B3: CDTa_(50-463) (domain or fragment)
chain: KAPIERPEDFLKDKEKAKEWERKEAERIEQKLERSEKEALESYKKDSVEISKYSQTRNYFYDYQIEANSREKEYKELRNAISKNKIDKPMYVYYFESPEKFAFNKVIRTENQNEISLEKFNEFKETIQNKLFKQDGFKDISLYEPGKGDEKPTPLLMHLKLPRNTGMLPYTNTNNVSTLIEQGYSIKIDKIVRIVIDGKHYIKAEASVVSSLDFKDDVSKGDSWGKANYNDWSNKLTPNELADVNDYMRGGYTAINNYLISNGPVNNPNPELDSKITNIENALKREPIPTNLTVYRRSGPQEFGLTLTSPEYDFNKLENIDAFKSKWEGQALSYPNFISTSIGSVNMSAFAKRKIVLRITIPKGSPGAYLSAIPGYAGEYEVLLNHGSKFKINKIDSYKDGTITKLIVDATLIP
B3: in test [3], the Kd amounted to 5.7 nM and the kon turned out to be 1.4e+06 M⁻¹ s⁻¹.

B4: CDTa_(67-463) (domain or fragment)
chain: KEWERKEAERIEQKLERSEKEALESYKKDSVEISKYSQTRNYFYDYQIEANSREKEYKELRNAISKNKIDKPMYVYYFESPEKFAFNKVIRTENQNEISLEKFNEFKETIQNKLFKQDGFKDISLYEPGKGDEKPTPLLMHLKLPRNTGMLPYTNTNNVSTLIEQGYSIKIDKIVRIVIDGKHYIKAEASVVSSLDFKDDVSKGDSWGKANYNDWSNKLTPNELADVNDYMRGGYTAINNYLISNGPVNNPNPELDSKITNIENALKREPIPTNLTVYRRSGPQEFGLTLTSPEYDFNKLENIDAFKSKWEGQALSYPNFISTSIGSVNMSAFAKRKIVLRITIPKGSPGAYLSAIPGYAGEYEVLLNHGSKFKINKIDSYKDGTITKLIVDATLIP
For B4, in test [3], the Kd worked out at 18.5 nM and the kon is 400000 M⁻¹ s⁻¹.
